Results on seven molecules are retold here after PMC4051647, “Two Adjacent and Similar TetR Family Transcriptional Regulator Genes, SAV577 and SAV576, Co-Regulate Avermectin Production in Streptomyces avermitilis”.

Data set [1] concerns the target T1, His6-SAV577 (Streptomyces avermitilis ATCC31267?) (UniProt Q82QD3).
T1 sequence: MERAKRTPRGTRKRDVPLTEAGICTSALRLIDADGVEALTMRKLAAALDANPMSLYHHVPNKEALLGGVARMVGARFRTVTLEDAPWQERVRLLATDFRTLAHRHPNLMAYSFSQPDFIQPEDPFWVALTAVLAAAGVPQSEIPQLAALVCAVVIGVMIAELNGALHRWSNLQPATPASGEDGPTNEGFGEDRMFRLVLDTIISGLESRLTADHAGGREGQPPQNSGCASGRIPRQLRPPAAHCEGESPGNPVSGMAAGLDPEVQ
Kind of data set: EMSA. The settings on record: EMSA: Roche DIG Gel Shift kit binding buffer, 1 ug poly[d(I-C)] per 20 ul, 25 C 30 min, 5% native PAGE 0.5x TBE; footprinting: 20 mM HEPES pH 7.6, 10 mM …. For orientation: Mobility shift assays separate free from complexed probe on a gel.

The target in a further data set is T2, His6-SAV577 (UniProt Q82QD3 1-265).
T2 sequence: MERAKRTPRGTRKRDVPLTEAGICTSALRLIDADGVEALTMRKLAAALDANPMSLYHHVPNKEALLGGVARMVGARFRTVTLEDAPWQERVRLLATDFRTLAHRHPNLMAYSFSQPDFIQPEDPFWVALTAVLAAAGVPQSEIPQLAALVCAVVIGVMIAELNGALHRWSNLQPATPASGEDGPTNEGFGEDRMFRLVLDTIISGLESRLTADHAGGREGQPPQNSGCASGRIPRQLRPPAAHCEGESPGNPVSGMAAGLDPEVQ
Nature of the data set: EMSA; 0.3 nM probe; EMSA: Roche DIG Gel Shift kit binding buffer, 1 ug poly[d(I-C)] per 20 ul, 25 C 30 min, 5% native PAGE 0.5x TBE; footprinting: 20 mM HEPES pH 7.6, 10 mM (NH4)2SO4, 1 mM DTT, 0.2% Tween-20, 30 mM KCl, 25 C binding. The settings on record: protein: recombinant; tags: N-terminal His6; chain copies: 2; label: DIG 3'-end; blunt.

Regarding “ATATGCCCTGCCGAGGAGACCCTGGCGAACCCGCCTTGCCCGCTCTCGCGGACTGATACCGGCCTGATCGAGCGCGGCATGGAGACGTACGGGCGCCGCCGCGAGGCGGCACACGCGCCTGCTTCTCCGGCGCTGCCGTCAGTCGCCGACGCGCATGGGTGCAGACCCGACCTCCGCGATGCGTACTGGCGGGCAGGGGGATTGGCTGCTCACCGGGATGTAGCCGCGGCCGCCGTCGCGGATCGTGGGTGTCCTCC (double strand) [probe 4]”, the binding result in data set [1] was “no binding”.
On to “GAAACTCAATCGGCAGACCTGGGGTCGAGAAACAGGAACGTTTCGGCCCATCAGGGACGGCGTCGCTCACGCAGCGGGGTCGCATCAGGATCAGGCGCTGCCGAACGCTCTCCCGGCTGGAGGAGGCGAGGGGAGACCGGTCGCCGCCAGCCGGCGGCTCGACCGGGCCACCGGTGGGTGCGCCCCGGGGAGGACACCCACGATCCGCGACGGCGGCCGCGGCTACATCCCGGTGAGCAGCCAATCCCCCTGCCCGCCAGTACGCATCGCGGAGGT (double strand) [probe 3]”, for which, in data set [1], the binding entry is “no binding”.
“GAAGGCATACAGCGTATGGAAACGGGGCGCTGCCGTACCGGCGCCCCGTCACACCGAATGGCGCCCTGCCCGCCTTTCCCCTTGGAGGAGCCAGCCAT (double strand) [probe 1]”: in data set [1], the binding entry is listed as “binds more weakly”.
On the same count and under the same terms, the result for “GCTCTCGGAATTGTTCGTTCCCTCGCACTACACGTTCGAGATCGGAACGTGAAGACCAGCACGCTCCAGCCCGTTCGGATGCCGTACGTAGTCCGCCATGGCCAAGGGAATGAGCCCCACTCAGGCAGCGCCCTCGTACTCGTCCACGACCAGATGCTTGGACAGCAGCGCCTGAACCGCGTCCGGCGGAAAGTATCAGTGGACGAACG (double strand) [probe 577p]” reads “no binding”.
With “GGTATTCCATTCGGTGTTGCAGCACGCGACCCACTGCGCATCCCACTCGTGAATTGTGGACCGCCATCCGGGGCACGGATGTCTCCAGGAAGGAACTCCTTCACCCTCGCGAACACCACCTCAGAATCCCACGATCATCAGTTAATCATCAAAGTCAGCGACCTTGACACTACCCCGCCCACCAGGGCAAATTCATAACA (double strand) [probe 7]”, in data set [1], the binding entry is listed as “no binding”.

B1: probe 2 (dsDNA)
DNA 1: CCCAGGTCTGCCGATTGAGTTTCCATACGTCGTATGGTACTAC
DNA 2: GTAGTACCATACGACGTATGGAAACTCAATCGGCAGACCTGGG
For B1, the binding result in the data set with His6-SAV577 is “binds”.

B2: probe 6 (dsDNA)
DNA 1: AGTCGCCATACGCTGTACGGTACCAGCGCCCGCGGCACTGCGG
DNA 2: CCGCAGTGCCGCGGGCGCTGGTACCGTACAGCGTATGGCGACT
For the molecule B2, the binding result with His6-SAV577 is given as “binds”.
